Patent US20220403332A1, “SELF-ORGANIZING NEURAL ECTODERMAL LINEAGE CELLULAR STRUCTURES, AND COMPOSITIONS AND METHODS RELATING THERETO” (THE ROCKEFELLER UNIVERSITY, priority 2019, published 2022)

Assays:
Format in all cases: cell-based, human
[1] = system: day 7 neuruloid; assay: neuruloid formation with blebbistatin, day 7 immunofluorescence; details: day 7 neuruloid treated with Blebbistatin 5 μM; stained for DAPI, N-CAD, PAX6, COL4 (FIG. 12E)
Source text: FIG. 12—related to FIG. 6. (A) RUES2 and 56CAG background distribution within the main cell populations found in the neuruloid. All clusters are well represented in either background although 56CAG has a higher relative proportion of NC and placode cells. (B) Gene ontology analyses using DAVID (www.david.ncifcrf.gov) for NE- and NC-specific DEG between RUES2 and 56CAG. (C) Violin plots showing the distribution of normalized gene expression values for the genes in FIGS. 6B and 6C. (D) qPCR validation of the down-regulation of WNT/PCP and cytoskeleton-associated genes in the 56CAG neuruloid versus WT RUES2. (E) Representative image of a day 7 neuruloid treated with Blebbistatin (5 μM) and stained for DAPI, N-CAD, PAX6, and COL4. (Top) side view, (Bottom) top view.
In order to unravel the molecular mechanisms underlying the morphogenetic defect, single-cell RNA-seq data of neuruloids in WT and 56CAG background was explored. All major cell populations found in the WT neuruloid were also present in the 56CAG background, supporting the lack of influence on fate specification (FIG. 12A). […] Using Seurat to identify differentially expressed genes (DEG) between 56CAG and RUES2 cell lines, 499 misregulated genes specific to the NE (adjusted p-value ≤0.05 and a minimum percentage difference in cells expressing the gene ≥10%) and 663 specific for the NC population was found (FIG. 6E). […]

[2] = system: pSMAD1; assay: signaling dynamics time-course after BMP4 presentation (immunofluorescence, western blot)
Description: FIG. 4 depicts coupling of cell fate specification with a two-step morphogenesis mechanism during neuruloid formation. (A) (Top) time course immunofluorescence analysis of the neuruloid from day 3 to 4. Day 3 micropattern colonies were treated with BMP4 (3 ng/ml) for 1, 3, 5, 10, and 24 hours then stained with PAX6, pSMAD1, and TFAP2A. (Bottom Left) Western blot analysis of the micropattern colonies treated with BMP as above. Sample were stained with anti-pSMAD1/5 antibody. Anti-total SMAD antibody was used as a control. (Bottom Right) Quantification of the western blot analysis. (B) Time-lapse video microscopy imaging of neuruloid formation from day 3 to 6 using the live reporter line (PAX6::H2B-Citrin and SOX10::H2B-tdTomato). Images were recorded every 30 min from day 3 to the end of day 5 (66 hours total). Representative images are shown (a; first image of day 3, b; first image of day 4, c; first image of day 5, d; last image of day 5). […] (E) Associated quantification of PAX6, SIX1, and SOX10 area of the neuruloid treated with indicated drugs. […]
To uncover the molecular mechanisms of neuruloid self-organization, the signaling dynamics over a time-course after BMP4 presentation was followed. […] Only a few SOX10+ cells were detected during this initial phase, but a large expansion occurred in the SOX10 area concomitant with the PAX6 domain condensation starting at day 5. […]

[3] = system: 500 μm micropatterned colonies (hESCs, RUES2); assay: neuruloid formation at different BMP4 concentrations, day 7 immunofluorescence; details: 500 μm colonies at day 7
Source text: FIG. 2 depicts self-organization into neuruloids on micropatterns. (A) Schematic of the neuruloid differentiation protocol. (B) Immunofluorescence imaging of 80, 200 and 500 μm of day 7 micropatterned colonies. Samples were stained with DAPI (gray), PAX6 (green), and N-CAD (orange). (C) Immunofluorescence imaging of 500 μm of day 7 micropatterned colonies. Samples were stained with DAPI (gray), PAX6 (green), and COL4 (Collagen IV, orange). Side view of resliced z-stack around PAX6+ center region, colony edge region is also shown. (D) replicates with PAX6 (green) and SOX10 (red). (E) (Left) Immunofluorescence imaging of 500 μm micropatterned colonies at day 7 with different BMP4 concentrations: 0, 3, 13, and 50 ng/ml. Samples were stained with PAX6 (green), SOX10 (red) and cranial placode marker SIX1 (orange). (Right) Quantifications of SIX1 positive cell number. Data are mean±standard deviation. (F) (Top Left) Sketch of the ectodermal compartment at neurulation in vivo. (Top Right) Sketch of the neuruloid on micropattern. (Middle panel) Side view of the day 7 neuruloid with 3 ng/ml of BMP. Samples were stained with DAPI, PAX6, SOX10, SIX1, and non-neural ectoderm maker TFAP2A. Note that the TFAP2A+ also stain a few SOX10 and SIX1 positive cells. The non-neural ectoderm cells are only TFAP2A positive. (Bottom) Top view by multiple z from bottom to top. All scale bars represent 50 μm. […]

## Cc1ccc2c(c1)C(=O)C1(O)CCN(c3ccccc3)C1=N2 (centres unmarked) [blebbistatin]
[1]
  central neuro-epithelium morphology (opened versus closed): phenocopies the opened neuro-epithelium observed in HD and Htt−/− neuruloids

B1: BMP4: bone morphogenetic protein (BMP) used as morphogen to drive neuruloid formation (protein, UniProt P12644 293-408, looked up)
Bone morphogenetic protein 4: SPKHHSQRARKKNKNCRRHSLYVDFSDVGWNDWIVAPPGYQAFYCHGDCPFPLADHLNSTNHAIVQTLVNSVNSSIPKACCVPTELSAISMLYLDEYDKVVLKNYQEMVVEGCGCR
[2]; 24 hours after BMP4 (3 ng/ml) presentation at day 3
  TFAP2A induction: induction of TFAP2A+ in the same domain
[2]; day 3 colonies treated with BMP4 3 ng/ml for 1, 3, 5, 10, 24 hours (FIG. 4A)
  pSMAD1 signaling after BMP4 presentation: pulse of pSMAD1 restricted to the colony edge
[3]; BMP4 0, 3, 13 and 50 ng/ml from day 3
  overall spatial distribution of cell types: independent of BMP4 concentration
[3]; BMP4 0, 3, 13 and 50 ng/ml from day 3 (FIG. 2E, 8H)
  number of SIX1+ cells: peaked at intermediate levels
